Source: the RNAGym collection of RNA variant scans (doi:10.1093/molbev/msab373)

B1: Azoarcus group I ribozyme (parent)
chain: GUGCCUUGCGCCGGGAAACCACGCAAGGGAUGGUGUCAAAUUCGGCGAAACCUAAGCGCCCGCCCGGGCGUAUGGCAACGCCGAGCCAAGCUUCGGCGCCUGCGCCGAUGAAGGUGUAGAGACUAGACGGCACCCACCUAAGGCAAACGCUAUGGUGAAGGCAUAGUCCAGGGAGUGGCGAAAGUCACACAAACCGG

Variants of: B1
Assay: reverse-splicing fitness (ratio to wild type); higher = more active; in vitro selection; Mg2+ level not given
Summary of the method: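 An in vitro group I ribozyme library with randomized positions was T7-transcribed and gel-purified. In triplicate, 10 pmol RNA in EPPS pH 7.5 was reacted with 50 pmoles of a 30-nt RNA substrate for 1 h at 37 °C across several added MgCl2 levels (1–48 mM), then stopped with EDTA. Products were reverse transcribed from a substrate-complementary primer, PCR-amplified and sequenced (HiSeq 4000). Fitness is a variant's read proportion after selection over that before, normalised to wild type.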

Row | Variant | reverse-splicing fitness
1 | A120U A145U C150G U176A | 0.122
2 | A120U A145U C150G U176C | 0.148
3 | A120U A145U C150G U176G | 0.018
4 | A120U C150G | 0.206
5 | A120U C150U | 0.774
6 | A120U C150A | 0.245
7 | A120U C150U C169A U176G | 0.00183
8 | A120U C150U C169A U176A | 0.0051
9 | A120U C150U C169A U176C | 0.00368
10 | A145G C150G | 0.48
11 | A145G C150U | 0.93
12 | A145G C150A | 0.582
13 | A120U C150G C169A U176C | 0.00332
14 | A120U C150G C169A U176A | 0.00468
15 | A120U C150G C169A U176G | 0.00242
16 | A145U C150A C169A U176A | 0.014
17 | A145U C150A C169A U176G | 0.00528
18 | A145U C150A C169A U176C | 0.0139
19 | A145C C169U U176G | 0.0117
20 | A145C C169U U176A | 0.106
21 | A145C C169U U176C | 0.156

Row | Variant | reverse-splicing fitness
22 | A120U C169G U176C | 0.0915
23 | A120U C169G U176G | 0.00332
24 | A120U C169G U176A | 0.0354
25 | A145C C150U U176A | 0.613
26 | A145C C150U U176C | 0.596
27 | A145C C150U U176G | 0.308
28 | A145G C150A C169U U176A | 0.0484
29 | A145G C150A C169U U176C | 0.0583
30 | A145G C150A C169U U176G | 0.00772
31 | A120U C150A C169A | 0.00484
32 | A120U C150A C169U | 0.038
33 | A120U C150A C169G | 0.0291
34 | A120U A145U C150U C169U U176C | 0.0952
35 | A120U A145U C150U C169U U176A | 0.059
36 | A120U A145U C150U C169U U176G | 0.00903
37 | A120U C150G U176G | 0.0108
38 | A120U C150G U176C | 0.115
39 | A120U C150G U176A | 0.0739
40 | A120U A145G C150U C169U U176C | 0.108
41 | A120U A145G C150U C169U U176A | 0.0753
42 | A120U A145G C150U C169U U176G | 0.00649

Row | Variant | reverse-splicing fitness
43 | A145U C150A C169U U176G | 0.00699
44 | A145U C150A C169U U176A | 0.031
45 | A145U C150A C169U U176C | 0.0345
46 | A145C C150U C169G U176C | 0.0444
47 | A145C C150U C169G U176A | 0.0403
48 | A145C C150U C169G U176G | 0.00658
49 | A145G C169G U176A | 0.0818
50 | A145G C169G U176C | 0.14
51 | A145G C169G U176G | 0.00802
52 | A120U A145G C169G U176C | 0.0902
53 | A120U A145G C169G U176A | 0.0414
54 | A120U A145G C169G U176G | 0.00281
55 | A120U A145G C150G C169G U176G | 0.00354
56 | A120U A145G C150G C169G U176C | 0.00575
57 | A120U A145G C150G C169G U176A | 0.00914
58 | A120U A145G C150U U176A | 0.54
59 | A120U A145G C150U U176G | 0.155
60 | A120U A145G C150U U176C | 0.532
61 | A145G C150A C169G U176A | 0.0321
62 | A145G C150A C169G U176G | 0.00527
63 | A145G C150A C169G U176C | 0.0517

Row | Variant | reverse-splicing fitness
64 | A120U A145U C150A C169A U176C | 0.00256
65 | A120U A145U C150A C169A U176G | 0.00156
66 | A120U A145U C150A C169A U176A | 0.0027
67 | A145C C150A C169U U176G | 0.00589
68 | A145C C150A C169U U176C | 0.0218
69 | A145C C150A C169U U176A | 0.023
70 | A120U A145U C150A U176G | 0.0665
71 | A120U A145U C150A U176A | 0.151
72 | A120U A145U C150A U176C | 0.141
73 | A145C C150U | 0.695
74 | A145C C150G | 0.525
75 | A145C C150A | 0.321
76 | A120U A145G C169A U176G | 0.00148
77 | A120U A145G C169A U176A | 0.00474
78 | A120U A145G C169A U176C | 0.00664
79 | A145C C150U C169U | 0.122
80 | A145C C150U C169A | 0.0428
81 | A145C C150U C169G | 0.0825
82 | A145G C150G C169A U176G | 0.00779
83 | A145G C150G C169A U176A | 0.0133
84 | A145G C150G C169A U176C | 0.0194
